# Experimental data as given in patent US20100120700A1, “METHODS AND COMPOSITIONS FOR TREATING CERVICAL CANCER” (priority 2000, published 2010).
# Entries after “also recorded” stand apart in the source; their conditions may differ. Where two headings read alike, the source gives them in different places.
# Legend:
# [1] = target: GST-HPV18E6 fusion protein (Human papillomavirus type 18, UniProt P06463); details: plate coated with 5 ug/ml GST-E6, unpurified TIP-TIP-IgG supernatant, FIG. 2
# Experimental: (§1) Protocol • 1) Coat plate with 5 ug/ml GST-E6 fusion protein, O/N @4° C. • 2) Dump proteins out and tap dry • 3) Blocking—Add 200 ul per well 2% BSA/PBS, 2 hrs at 4° C. • 4) Prepare PDZ proteins (50:50 mixture of supematant from TIP-TIP-IgG transfection and 2% BSA/PBS) • 5) 3× wash with cold PBS • 6) Add PDZ protein prepared in step 7 or anti-E6 Ab at 1 ug/ml in 2% BSA/PBS (or anti-GST Ab as control). • 7) 3× wash with cold PBS • 8) Add appropriate concentration of enzyme-conjugated detection Ab (anti-hIgG-HRP, anti-goat-HRP, or anti-mouse-HRP) 100 ul per well on ice, 20 minutes at 4° C. • 9) Turn on plate reader and prepare files • 10) 5× wash with Tween wash buffer, avoiding bubbles • 11) Using gloves, add TMB substrate at 100 ul per well • incubate in dark at room temp • check plate periodically (5, 10, & 20 minutes) • take early readings, if necessary, at 650 nm (blue) • at 30 minutes, stop reaction with 100 ul of 1M H2SO4 • take final reading at 450 nm (yellow)
# GST-HPV11E6 = target: T1, GST-HPV11E6 (Human papillomavirus 11, UniProt P04019); assay: Modified ELISA, TIP-TIP-IgG binding to full length E6; design: species or system HPV11; details: plate coated with 5 ug/ml GST-E6; FIG. 2
# T1 construct: made in house; host or cells: E. coli
# T1 sequence (P04019 whole entry): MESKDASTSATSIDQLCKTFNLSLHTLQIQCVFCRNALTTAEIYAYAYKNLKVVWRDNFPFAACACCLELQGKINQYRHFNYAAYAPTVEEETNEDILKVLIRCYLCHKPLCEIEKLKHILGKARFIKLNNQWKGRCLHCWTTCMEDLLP
# Experimental: as §1
# GST-HPV18E6 fusion protein, sequence (P06463 whole entry, the tested form may be a part): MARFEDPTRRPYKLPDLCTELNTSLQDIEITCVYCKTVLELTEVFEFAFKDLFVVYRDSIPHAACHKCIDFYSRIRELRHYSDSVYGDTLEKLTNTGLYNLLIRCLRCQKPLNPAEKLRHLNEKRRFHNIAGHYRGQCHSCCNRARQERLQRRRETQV
molecule,measurement,setting,value
"TIP-TIP-IgG fusion protein: two copies of the TIP-1 PDZ domain fused to the hIgG constant region (protein, left off: a dimerising Fc or GST, two copies of the TIP-1 PDZ domain fused to the hIgG constant region) QRVEIHKLRQGENLILGFSIGGGIDQDPSQNPFSEDKTDKGIYVTRVSEGGPAEIAGLQIGDKIMQVNGWDMTMVTHDQARKRLTKRSEEVVRLLVTRQSLQKQRVEIHKLRQGENLILGFSIGGGIDQDPSQNPFSEDKTDKGIYVTRVSEGGPAEIAGLQIGDKIMQVNGWDMTMVTHDQARKRLTKRSEEVVRLLVTRQSLQK",binding to full length oncogenic E6 (HPV18),[1],able to recognize GST-HPV18E6 fusion protein at levels comparable to an antibody generated against HPV18-E6
same,binding to full length oncogenic E6 (HPV18),[1]; listed as TIP-1,could specifically recognize full length E6 protein from an oncogenic strain (HPV18)
same,binding to full length non-oncogenic E6 (HPV11),GST-HPV11E6,did not show any reactivity; also recorded: without binding to non-oncogenic variants
